The values below come from US20150203575A1 (Genentech, published 2015).

Experiment [1] has as its target T1, human NPDC1 expressed on cells (human, UniProt Q9NQX5 35-325).
T1 construct: also called hNPDC1; hNPCD1
T1 sequence: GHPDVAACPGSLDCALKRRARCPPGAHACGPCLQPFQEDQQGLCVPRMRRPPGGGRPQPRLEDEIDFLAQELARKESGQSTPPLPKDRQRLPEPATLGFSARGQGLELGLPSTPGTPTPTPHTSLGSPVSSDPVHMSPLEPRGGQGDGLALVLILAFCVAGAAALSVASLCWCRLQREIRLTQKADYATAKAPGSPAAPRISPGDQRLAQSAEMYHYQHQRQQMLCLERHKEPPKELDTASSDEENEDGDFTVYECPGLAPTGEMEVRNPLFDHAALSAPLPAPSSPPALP
Kind of experiment: AP staining of transfected COS7 cells with AP fusion supernatant.
Method: (§1) 2931 cells were transfected with PILRα-AP-pRK5 constructs and Fugene 6 Transfection Reagent (Roche) according to the manufacturer's instructions. Three days after transfection, supernatants were collected for screening. COS7 cells were plated in a 24-well format and transfected with 10 ul of Origene library DNA (Origene, human DNA library containing 20 k genes) per well with Fugene 6 Reagent. Two days later, cells were incubated with human or mouse PILRα-Ap supernatants for 45 min at room temperature (RT). Then cells were fixed with 4% PFA for 15 min at RT. After removing fixation buffer, cells were blocked with 100 mM Glycine in HBS (20 mM Hepes, PH7.2, 150 mM NaCl) for 15 min at RT. Cells were then rinsed and incubated in HBS for 90 min at 65° C. HBS was removed and Western Blue Substrate (Promega) was added and color was developed for 30 min to 1 hr.

For experiment [2], the target named is T2, human COLEC12 expressed on cells (human, UniProt Q5KU26 1-742).
T2 construct: also called hCOLEC12; C-terminal his tagged hCOLEC12
T2 sequence (Q5KU26 whole entry S522P/G606S): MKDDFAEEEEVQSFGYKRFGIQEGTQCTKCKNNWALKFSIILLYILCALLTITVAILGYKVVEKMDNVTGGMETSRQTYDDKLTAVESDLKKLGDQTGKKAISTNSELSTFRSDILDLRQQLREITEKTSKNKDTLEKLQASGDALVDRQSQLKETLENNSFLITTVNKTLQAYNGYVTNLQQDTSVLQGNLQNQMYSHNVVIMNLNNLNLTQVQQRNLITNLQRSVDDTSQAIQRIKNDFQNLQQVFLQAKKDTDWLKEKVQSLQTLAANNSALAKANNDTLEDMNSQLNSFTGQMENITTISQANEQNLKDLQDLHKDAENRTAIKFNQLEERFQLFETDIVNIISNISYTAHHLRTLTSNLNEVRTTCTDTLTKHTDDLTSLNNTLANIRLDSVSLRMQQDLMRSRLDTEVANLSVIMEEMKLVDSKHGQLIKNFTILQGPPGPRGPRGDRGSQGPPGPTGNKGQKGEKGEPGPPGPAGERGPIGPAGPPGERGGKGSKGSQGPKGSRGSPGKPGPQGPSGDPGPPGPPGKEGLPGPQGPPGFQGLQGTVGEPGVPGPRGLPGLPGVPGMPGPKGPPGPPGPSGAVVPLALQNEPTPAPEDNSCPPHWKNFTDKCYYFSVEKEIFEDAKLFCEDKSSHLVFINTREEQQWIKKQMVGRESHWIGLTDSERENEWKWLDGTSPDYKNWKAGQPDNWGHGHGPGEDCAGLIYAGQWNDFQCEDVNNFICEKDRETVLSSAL
The experiment is described as above.
Method: as §1

Experiment [3] deals with T2, human COLEC12 expressed on cells. Kind of experiment: flow cytometry, transfected 293T cells, 50 µg/ml.
Experiment [4] addresses T3, BR3 expressed on cells (human, UniProt Q96RJ3 1-184).
T3 construct: Clone of the Origene human cDNA library
T3 sequence: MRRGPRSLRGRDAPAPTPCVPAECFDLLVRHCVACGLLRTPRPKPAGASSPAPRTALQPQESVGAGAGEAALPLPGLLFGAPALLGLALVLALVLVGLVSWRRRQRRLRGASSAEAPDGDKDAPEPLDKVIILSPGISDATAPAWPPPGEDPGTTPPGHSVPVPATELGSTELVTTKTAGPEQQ
Briefly: flow cytometry, transfected 293T cells, 50 µg/ml. On the technique in general: Flow cytometry measures light scatter and fluorescence of single cells or particles in a stream.

Experiment [5] deals with T4, IL-2Ra expressed on cells (human, UniProt P01589 22-272).
T4 construct: Clone of the Origene human cDNA library; also called Interleukin 2 receptor alpha
T4 sequence: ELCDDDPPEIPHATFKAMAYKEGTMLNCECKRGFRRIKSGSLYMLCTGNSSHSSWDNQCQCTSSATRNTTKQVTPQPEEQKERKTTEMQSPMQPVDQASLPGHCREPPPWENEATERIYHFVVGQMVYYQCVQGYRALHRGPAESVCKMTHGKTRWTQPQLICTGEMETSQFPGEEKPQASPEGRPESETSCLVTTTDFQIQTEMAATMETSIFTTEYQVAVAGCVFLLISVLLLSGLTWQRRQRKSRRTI
Briefly: flow cytometry, transfected 293T cells, 50 µg/ml.

For experiment [6], the target named is T5, PSS8 expressed on cells (human, UniProt Q16651 30-343).
T5 construct: Clone of the Origene human cDNA library; also called Protease serine 8; prostasin
T5 sequence (Q16651 30-343 limits assumed): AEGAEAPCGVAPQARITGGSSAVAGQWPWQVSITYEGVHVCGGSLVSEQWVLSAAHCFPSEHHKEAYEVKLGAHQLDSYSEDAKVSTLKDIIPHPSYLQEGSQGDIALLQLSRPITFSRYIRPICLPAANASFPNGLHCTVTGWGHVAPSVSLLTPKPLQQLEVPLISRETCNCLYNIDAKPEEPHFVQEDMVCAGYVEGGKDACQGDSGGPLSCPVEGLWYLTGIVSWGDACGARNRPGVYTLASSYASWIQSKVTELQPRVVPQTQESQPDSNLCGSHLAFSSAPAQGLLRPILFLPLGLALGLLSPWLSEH
Kind of experiment: flow cytometry, transfected 293T cells, 50 µg/ml.

Experiment [7] concerns the target T6, mouse CD99 expressed on 293T cells (mouse, UniProt Q8VCN6 29-175, sialylated O-glycans at Thr-45 and Thr-50 (cited as relevant for PILRα recognition)).
T6 construct: whole, on cells; also called mCD99; mCD99 transfectants
T6 sequence (looked up): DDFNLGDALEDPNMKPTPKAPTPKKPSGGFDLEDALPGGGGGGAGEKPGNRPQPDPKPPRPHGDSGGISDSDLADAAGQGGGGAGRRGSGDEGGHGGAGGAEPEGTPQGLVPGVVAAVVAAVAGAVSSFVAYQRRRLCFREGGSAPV
Kind of experiment: flow cytometry, transfected 293T cells, 50 µg/ml; 293T-Neo: 1.1.

The target in experiment [8] is T1, human NPDC1 expressed on cells. Described as above.
The target of experiment [9] is T2, human COLEC12 expressed on cells. Described as above.
Experiment [10] concerns the target T7, CLEC4G expressed on cells (human, UniProt Q6UXB4 1-293).
T7 construct: Clone of the Origene human cDNA library; also called C type lectin superfamily 4 member G
T7 sequence: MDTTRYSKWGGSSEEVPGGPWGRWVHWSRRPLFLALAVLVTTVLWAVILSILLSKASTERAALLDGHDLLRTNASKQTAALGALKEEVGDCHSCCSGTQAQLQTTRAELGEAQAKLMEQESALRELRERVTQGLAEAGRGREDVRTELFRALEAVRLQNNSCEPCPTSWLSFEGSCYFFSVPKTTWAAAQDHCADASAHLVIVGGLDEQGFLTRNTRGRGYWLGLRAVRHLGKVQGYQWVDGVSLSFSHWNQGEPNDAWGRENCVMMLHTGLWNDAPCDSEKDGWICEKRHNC
Briefly: flow cytometry, transfected 293T cells.

In experiment [11] the target is T8, LRRTM4 expressed on cells (human, UniProt Q86VH4 31-590).
T8 construct: Clone of the Origene human cDNA library; also called Leucine rich repeat transmembrane neuronal 4
T8 sequence (Q86VH4 31-590 limits assumed): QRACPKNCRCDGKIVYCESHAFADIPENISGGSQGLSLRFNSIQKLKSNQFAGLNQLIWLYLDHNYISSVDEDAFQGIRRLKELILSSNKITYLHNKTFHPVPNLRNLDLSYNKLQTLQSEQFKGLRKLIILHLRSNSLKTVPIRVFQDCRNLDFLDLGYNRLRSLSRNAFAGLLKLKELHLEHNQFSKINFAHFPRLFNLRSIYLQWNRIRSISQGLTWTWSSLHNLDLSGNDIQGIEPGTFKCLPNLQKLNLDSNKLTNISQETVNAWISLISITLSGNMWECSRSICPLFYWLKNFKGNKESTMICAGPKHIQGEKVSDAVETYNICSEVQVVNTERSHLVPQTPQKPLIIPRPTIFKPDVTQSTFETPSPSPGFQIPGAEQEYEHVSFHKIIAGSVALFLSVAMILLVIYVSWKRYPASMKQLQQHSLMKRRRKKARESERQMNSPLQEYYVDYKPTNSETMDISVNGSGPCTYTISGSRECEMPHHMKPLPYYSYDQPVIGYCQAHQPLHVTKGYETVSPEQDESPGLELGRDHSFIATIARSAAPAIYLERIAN
Kind of experiment: flow cytometry, transfected 293T cells.

In experiment [12] the target is T4, IL-2Ra expressed on cells. Briefly: flow cytometry, transfected 293T cells.
Experiment [13] concerns the target T5, PSS8 expressed on cells. Kind of experiment: flow cytometry, transfected 293T cells.
Experiment [14] has as its target T6, mouse CD99 expressed on 293T cells. Briefly: flow cytometry, transfected 293T cells, ligand-expressing cells gated.
Experiment [15] has as its target T1, human NPDC1 expressed on cells. Described as above.
Experiment [16] has as its target T2, human COLEC12 expressed on cells. The experiment is described as above.
In experiment [17] the target is T9, HSV1 glycoprotein B expressed on 293T cells (herpes simplex virus type 1, UniProt P10211 31-904).
T9 construct: whole, on cells; also called HSV-1 gB; HSV1 gB
Described as above.

B1: hPILRα-AP (other)
chain: QPSGSTGSGPSYLYGVTQPKHLSASMGGSVEIPFSFYYPWELATAPDVRISWRRGHFHRQSFYSTRPPSIHKDYVNRLFLNWTEGQKSGFLRISNLQKQDQSVYFCRVELDTRSSGRQQWQSIEGTKLSITQAVTTTTQRPSSMTTTWRLSSTTTTTGLRVTQGKRRSDSWHISLET
notes: Used as culture supernatant; also called human PILRα-AP; Alkaline phosphatase (AP)-tagged PILRα construct; not shown: C-terminal alkaline phosphatase (AP) tag
With B1, the binding result in experiment [1] and in experiment [2] was “binds” in each case.

B2: mPILRα-Fc (Fc fusion)
chain: not shown
notes: also called mouse PILRα-Fc; WT mPILRα-Fc; not shown: Fc of mouse IgG2a (PILRα-mIgG2a, called PILRα-Fc)
In the case of B2, the “% cells in lower right quadrant” value in experiment [3] was 10.1%; in [4] it was 53.3%; in experiment [5], 55.7%; in experiment [6], 30.6%; in experiment [7], 46.4%; in experiment [8], 40.9%. For the same molecule, the “% cells in lower right quadrant” value in experiment [9] worked out at 10.1%.

B3: mPILRαR133A-Fc (Fc fusion)
chain: not shown
notes: Arg mutant of mPILRα-Fc; also called mPILRα133A-Fc; variant mPILRα (R133A); not shown: Fc of mouse IgG2a (PILRα-mIgG2a, called PILRα-Fc)
As to B3, the binding result is reported as “no binding (tested: 50 µg/ml)” in experiment [10]; “no binding (tested: 50 µg/ml)” in experiment [11]; “no binding (tested: 50 µg/ml)” in experiment [12]; “no binding (tested: 50 µg/ml)” in experiment [13]; “no binding” in [14]; “no binding” in experiment [15]. In addition, the binding result in experiment [16] and in experiment [17] was “no binding” in each case.
